In the experiment the target is Plasmodium vivax Duffy binding protein region II (DBP-RII), recombinant (Plasmodium vivax) (UniProt P22290). As to the kind of experiment: ITC; DARC1-60 at 1.3 mM titrated into 1.4 mL of 130 µM DBP-RII; PBS; 10°C; independent two-site binding model after subtraction of both controls; molar ratios in monomers of DBP-RII.
Chain of UniProt P22290 (P22290 211-525): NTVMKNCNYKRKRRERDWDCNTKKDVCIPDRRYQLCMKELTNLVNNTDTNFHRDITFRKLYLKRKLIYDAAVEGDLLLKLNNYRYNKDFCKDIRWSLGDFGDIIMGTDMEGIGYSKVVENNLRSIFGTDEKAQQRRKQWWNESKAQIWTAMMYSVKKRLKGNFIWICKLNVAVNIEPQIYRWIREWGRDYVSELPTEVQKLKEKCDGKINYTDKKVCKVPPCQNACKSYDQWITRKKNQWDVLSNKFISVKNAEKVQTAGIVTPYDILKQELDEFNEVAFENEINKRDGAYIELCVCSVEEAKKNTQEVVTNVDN

With “DARC N-terminal ectodomain, residues 1-60, unsulfated, three cysteines mutated to alanine (from UniProt Q16570 1-60) (domain or fragment)”, the Kd1 (first binding event, heterotrimer; two independent sites fit) was 2180 nM; the Kd2 (second binding event, heterotetramer; two independent sites fit) was determined as 88.5 nM; the Kd of the first binding event (two independent sites fit) turned out to be 2.18 µM; the dH1 (first binding event) was -2.66 kcal/mol. For the same substance, the dH2 (second binding event) was -3.34 kcal/mol; the n1 (first binding event, per monomer of DBP-RII) was 0.44; the n2 (second binding event, per monomer of DBP-RII) was determined as 0.5; the stoichiometry N amounted to 1.

By stoichiometry N is commonly meant the number of molecules, sites or subunits per partner or assembly.

Values taken from paper PMC3887093.
